Assay [1] has as its target T1, human FcγRIIb extracellular domain with C-terminal His-tag (human, UniProt P31994 43-217).
T1 construct: extracellular domain; also called hFcγR IIb
T1 sequence (looked up): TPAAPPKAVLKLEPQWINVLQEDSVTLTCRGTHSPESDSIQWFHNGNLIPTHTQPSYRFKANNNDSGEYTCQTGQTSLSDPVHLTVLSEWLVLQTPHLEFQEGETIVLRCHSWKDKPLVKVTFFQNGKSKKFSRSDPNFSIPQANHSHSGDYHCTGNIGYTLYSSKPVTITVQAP
Kind of assay: SPR; FcγRIIb at 1000 nM, bound amount per unit captured Ab. For orientation: SPR reads the build-up and loss of mass on a sensor chip optically.

The target of assay [2] is T2, human FcγRIa extracellular domain with C-terminal His-tag (human, UniProt P12314 16-292).
T2 construct: extracellular domain; also called hFcγR Ia; hFcγRIa
T2 sequence (P12314 16-292): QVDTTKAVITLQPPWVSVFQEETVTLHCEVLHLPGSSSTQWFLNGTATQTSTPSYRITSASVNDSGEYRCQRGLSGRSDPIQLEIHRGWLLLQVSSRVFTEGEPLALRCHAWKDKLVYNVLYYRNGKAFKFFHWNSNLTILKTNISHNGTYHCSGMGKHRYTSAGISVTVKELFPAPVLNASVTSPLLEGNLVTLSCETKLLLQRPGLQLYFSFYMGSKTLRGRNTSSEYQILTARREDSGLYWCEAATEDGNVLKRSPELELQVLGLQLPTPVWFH
The experiment in a line: SPR; KD of 04H1637-G1m/04L1610-lam1 divided by KD of variant.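 Also: biacore T200 SPR at 25 °C, antibodies captured on anti-Fab-lambda SA chip with receptor as analyte, running buffer pH 7.4 for FcγRs and pH 6.0 for FcRn.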
Method: (§1) The interaction between the generated antibodies and human FcγRs was analyzed by the following method using Biacore T200. 50 mM Na-Phosphate, 150 mM NaCl, 0.05% Tween20 (pH 7.4) was used as the running buffer, and the assay was performed at 25° C. For the sensor chips, Series S SA (GE Healthcare) chips onto which CaptureSelect Human Fab-lambda Kinetics Biotin Conjugate (Thermo Fisher Scientific) was immobilized were used. The antibodies of interest were captured onto these chips and each FcγR diluted in the running buffer was allowed to interact with them. Chips were regenerated with 10 mM Glycine-HCl (pH 1.5) and 25 mM NaOH, and assay was performed by repeatedly capturing antibodies. The dissociation constants KD (mol/L) for FcγRs of each antibody were calculated using Biacore T200 Evaluation Software 2.0, using the 1:1 Langmuir binding model for FcγRIa and FcγRIIIa and the steady state affinity model for FcγRIIa. For FcγRIIb, the binding amount of FcγRIIb per unit amount of antibody was calculated by correcting the binding amount of FcγRIIb obtained from the sensorgram obtained by the measurement with the amount of antibody captured onto the chip surface.
(§2) The interaction between the generated antibodies and human FcRn was analyzed by the following method using Biacore T200. 50 mM Na-Phosphate, 150 mM NaCl, 0.05% Tween20 (pH 6.0) was used as the running buffer, and the assay was performed at 25° C. For the sensor chip, Series S SA (GE Healthcare) chips onto which CaptureSelect Human Fab-lambda Kinetics Biotin Conjugate (Thermo Fisher Scientific) was immobilized were used. The antibodies of interest were captured onto these chips and FcRn diluted in the running buffer was allowed to interact with them. Chips were regenerated with 10 mM Glycine-HCl (pH 1.5) and 25 mM NaOH, and assay was performed by repeatedly capturing antibodies. The dissociation constant for FcRn of each antibody was calculated using the steady state model, using Biacore T200 Evaluation Software 2.0.

The target in assay [3] is T3, human FcγRIIIa F allotype extracellular domain with C-terminal His-tag (human, UniProt P08637 17-208).
T3 construct: extracellular domain; also called hFcγR IIIa F
T3 sequence (P08637 17-208): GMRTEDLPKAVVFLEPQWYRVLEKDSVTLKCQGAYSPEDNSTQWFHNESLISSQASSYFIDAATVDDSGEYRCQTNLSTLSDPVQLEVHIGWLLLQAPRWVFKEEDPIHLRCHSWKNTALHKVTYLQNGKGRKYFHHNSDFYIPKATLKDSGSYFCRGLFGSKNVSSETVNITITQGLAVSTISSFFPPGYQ
The description is as above.
Method: as §1, §2

Assay [4] deals with T4, human FcγRIIa H allotype extracellular domain with C-terminal His-tag (human, UniProt P12318 34-217).
T4 construct: extracellular domain; also called hFcγR IIa H
T4 sequence (looked up): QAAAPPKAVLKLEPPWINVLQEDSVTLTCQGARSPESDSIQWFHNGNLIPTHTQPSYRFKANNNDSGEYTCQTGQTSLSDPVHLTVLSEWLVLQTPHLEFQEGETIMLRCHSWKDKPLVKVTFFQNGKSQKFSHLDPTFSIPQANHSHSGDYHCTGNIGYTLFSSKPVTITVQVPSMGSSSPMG
The description is as above.
Method: as §1, §2

Assay [5] addresses T5, human FcγRIIIa V allotype extracellular domain with C-terminal His-tag (human, UniProt P08637 17-208).
T5 construct: extracellular domain; also called hFcγR IIIa V
Described as above.
Method: as §1, §2

For assay [6], the target named is T6, human FcγRIIa R allotype extracellular domain with C-terminal His-tag (human, UniProt P12318 34-217).
T6 construct: extracellular domain; also called hFcγR IIa R
T6 sequence (looked up): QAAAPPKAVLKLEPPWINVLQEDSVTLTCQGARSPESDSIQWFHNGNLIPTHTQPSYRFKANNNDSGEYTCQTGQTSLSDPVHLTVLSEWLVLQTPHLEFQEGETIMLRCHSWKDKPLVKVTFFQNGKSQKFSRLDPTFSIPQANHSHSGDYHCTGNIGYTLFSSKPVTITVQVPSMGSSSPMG
Described as above.
Method: as §1, §2

Assay [7] addresses T1, human FcγRIIb extracellular domain with …. Kind of assay: SPR; binding amount divided by that of 04H1637-G1m/04L1610-lam1.
Assay [8] deals with T2, human FcγRIa extracellular domain with …. The experiment in a line: SPR Biacore T200, Ab captured via Fab-lambda, pH 7.4, 25C.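 Also: antibodies captured on a streptavidin chip carrying biotinylated anti-Fab-lambda, with each FcγR injected as analyte in phosphate buffer. KD fitted by 1:1 Langmuir or steady-state model depending on receptor.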
In assay [9] the target is T3, human FcγRIIIa F allotype extracellular …. The description is as above.
Assay [10] deals with T4, human FcγRIIa H allotype extracellular …. Described as above.
Assay [11] has as its target T5, human FcγRIIIa V allotype extracellular …. The assay is described as above.
The target of assay [12] is T6, human FcγRIIa R allotype extracellular …. The description is as above.

The values below come from patent US20260022175A1 (Chugai, published 2026).

T5 sequence (P08637 17-208 F176V): as the sequence (P08637 17-208) above, with F160V counted along it

B1: 04H1637-Kn125/04L1610-lam1//04H1637-Hl076/04L1610-lam1 (antibody, human IgG1, lambda)
heavy 1: QVQLVESGGGLVKPGGSLRLSCAASGFTFSSKTMNWVRQAPGKGLEWVSSISTQSHYIYYAESVRGRFTISRDNAKNSLYLQMNSLRAEDTAVYYCARYGKREDMLWVFDYWGQGTLVTVSSASTKGPSVFPLAPSSKSTSGGTAALGCLVKDYFPEPVTVSWNSGALTSGVHTFPAVLQSSGLYSLSSVVTVPSSSLGTQTYICNVNHKPSNTKVDKKVEPKSCDKTHTCPPCPAPEYQWGPMVFLFPPKPKDTLMISRTPEVTCVVVDVSDEEPEVKFNWYVDGVEVHNAKTKPREEQYNATYRVVSVLTVLHQDWLNGKEYKCKVSNKALPAPIEKTISKAKGQPREPQVCTLPPSRDELTKNQVSLWCLVKGFYPSDIAVEWESNGQPENNYKTTPPVLDSDGSFFLYSKLTVDKSRWQQGNVFSCSVMHEALHNHYTQKSLSLSP
heavy 2: QVQLVESGGGLVKPGGSLRLSCAASGFTFSSKTMNWVRQAPGKGLEWVSSISTQSHYIYYAESVRGRFTISRDNAKNSLYLQMNSLRAEDTAVYYCARYGKREDMLWVFDYWGQGTLVTVSSASTKGPSVFPLAPSSKSTSGGTAALGCLVKDYFPEPVTVSWNSGALTSGVHTFPAVLQSSGLYSLSSVVTVPSSSLGTQTYICNVNHKPSNTKVDKKVEPKSCDKTHTCPPCPAPELLGGPSVFLFPPKPKDTLMISRTPEVTCVVVDVSHEEPEVKFNWYVDGVEVHNAKTKPREEQYNSTYRVVSVLTVLHQDWLNGKEYKCKVSNDALPMPIEETISKAKGQPREPQVYTLPPSRCELTKNQVSLSCAVKGFYPSDIAVEWESNGQPENNYKTTPPVLDSDGSFFLVSKLTVDKSRWQQGNVFSCSVMHEALHNHYTQKSLSLSP
light: QSALTQPPSASGSPGQSVTISCEGPSTGVGDYNWVHWYQQHPGKAPKLMIYFTSKKPSGVPDRFSGSKSGNTASLTVSGLQAEDEADYYCQTYAAPLGPMFGGGTKLTVLGQPKAAPSVTLFPPSSEELQANKATLVCLISDFYPGAVTVAWKADSSPVKAGVETTTPSKQSNNKYAASSYLSLTPEQWKSHRSYSCQVTHEGSTVEKTVAPTECS
notes: Heterodimerized antibody, Fc variant of WO 2013/002362; also called 04H1637-Kn125/04L1610-lam1//04H1637-H1076/04L1610-lam1
For the molecule B1, the Binding amount in [1] was 0.007. For the same molecule, the “Relative value to KD between G1m and hFcγRs” value in assay [2] came to 1.2; in [3], 406; in assay [4], 3.6; in assay [5], 126; in [6], 1.6. The molecule also registered a Relative binding amount in assay [7] of 0.9. For the same molecule, the Kd – broadly, a measure of binding affinity in units of concentration – in assay [8] is 0.04 nM; in [9], 3.4 nM; in [10] it was 410 nM; in assay [11] it was 1.9 nM; in assay [12], 1200 nM.
